From article PMC5811034, “Xylem specific activation of 5’ upstream regulatory region of two NAC transcription factors (MusaVND6 and MusaVND7) in banana is regulated by SNBE-like sites”

What was measured:
Assay in all cases: EMSA; 10 mM Tris pH 8, 5 mM MgCl2, 10 mM KCl, 20 min (temperature not stated); 1.5% agarose gel
Conditions in all cases: protein: recombinant, chain copies: 2
VND2 (MusaVND2) = target: T1, VND2 (MusaVND2) (Musa (banana), cultivar  for …, UniProt A0A0G2UKP9 1-329)
T1 sequence: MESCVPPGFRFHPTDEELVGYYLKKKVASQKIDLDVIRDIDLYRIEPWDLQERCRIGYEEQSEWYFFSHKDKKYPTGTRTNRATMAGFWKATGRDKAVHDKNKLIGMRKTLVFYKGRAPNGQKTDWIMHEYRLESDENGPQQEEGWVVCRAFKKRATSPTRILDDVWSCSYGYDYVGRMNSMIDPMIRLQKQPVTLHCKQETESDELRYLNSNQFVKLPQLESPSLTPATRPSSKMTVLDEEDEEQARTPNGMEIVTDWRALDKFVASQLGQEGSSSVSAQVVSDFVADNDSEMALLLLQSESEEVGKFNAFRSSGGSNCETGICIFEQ

VND3 (MusaVND3) = target: T2, VND3 (MusaVND3) (Musa (banana), cultivar  for …, UniProt A0A0G2UF56 1-336)
T2 sequence: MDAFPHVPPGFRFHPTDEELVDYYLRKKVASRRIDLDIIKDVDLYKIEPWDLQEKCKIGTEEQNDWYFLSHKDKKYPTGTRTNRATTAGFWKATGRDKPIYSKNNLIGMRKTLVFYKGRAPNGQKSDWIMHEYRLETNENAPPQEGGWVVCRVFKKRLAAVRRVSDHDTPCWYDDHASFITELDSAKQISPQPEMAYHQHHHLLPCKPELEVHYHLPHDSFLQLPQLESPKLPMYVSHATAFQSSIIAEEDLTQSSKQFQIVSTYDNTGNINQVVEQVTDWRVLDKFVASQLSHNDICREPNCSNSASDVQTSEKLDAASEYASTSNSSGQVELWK

VND1 (MusaVND1) = target: T3, VND1 (MusaVND1) (Musa (banana), cultivar  for …, UniProt A0A0U3BXB0 1-329)
T3 sequence: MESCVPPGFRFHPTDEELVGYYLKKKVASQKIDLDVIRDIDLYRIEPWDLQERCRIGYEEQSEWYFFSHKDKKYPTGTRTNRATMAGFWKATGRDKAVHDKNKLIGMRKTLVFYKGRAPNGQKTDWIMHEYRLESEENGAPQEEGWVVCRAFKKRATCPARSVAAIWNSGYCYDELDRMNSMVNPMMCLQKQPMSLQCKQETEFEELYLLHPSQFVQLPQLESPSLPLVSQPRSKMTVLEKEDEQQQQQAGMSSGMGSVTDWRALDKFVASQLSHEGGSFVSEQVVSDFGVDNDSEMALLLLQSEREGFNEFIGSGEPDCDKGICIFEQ

Measured: binding result

B1: mSNBE PMusaVND7 (dsDNA)
DNA 1: CCTTCGGAAAGCACTCATTTAGGTTGG
DNA 2: CCAACCTAAATGAGTGCTTTCCGAAGG
no binding: VND2 (MusaVND2) | VND3 (MusaVND3) | VND1 (MusaVND1)

B2: mSNBE PMusaVND6 (dsDNA)
DNA 1: CCTTCGTAAAAGGGCTCTTTAGGTTGG
DNA 2: CCAACCTAAAGAGCCCTTTTACGAAGG
no binding: VND2 (MusaVND2) | VND3 (MusaVND3) | VND1 (MusaVND1)

B3: SNBE-like site PMusaVND7 (-186 to -167), 38 bp (dsDNA)
DNA 1: AATTCGATAGCCTTTGGCGTGCACTCAAAGAAATTGGT
DNA 2: ACCAATTTCTTTGAGTGCACGCCAAAGGCTATCGAATT
binds: VND2 (MusaVND2); TGGCGTGCACTCAAAGAAA mutant | VND3 (MusaVND3); TGGCGTGCACTCAAAGAAA mutant | VND1 (MusaVND1); TGGCGTGCACTCAAAGAAA mutant

B4: SNBE-like site PMusaVND6 (-220 to -201), 38 bp (dsDNA)
DNA 1: AATTCGATAGCCTTAGTTGTAGGGCTCAAGATTTTGGT
DNA 2: ACCAAAATCTTGAGCCCTACAACTAAGGCTATCGAATT
binds: VND2 (MusaVND2); AGTTGTAGGGCTCAAGATT mutant | VND3 (MusaVND3); AGTTGTAGGGCTCAAGATT mutant | VND1 (MusaVND1); AGTTGTAGGGCTCAAGATT mutant
